Experimental findings from paper PMC9283627, “Auxotrophic and prototrophic conditional genetic networks reveal the rewiring of transcription factors in Escherichia coli” are described below.

For this data set, the target named is T1, YneJ (Escherichia coli (K-12 strain not …, UniProt P77309 1-293)).
T1 sequence: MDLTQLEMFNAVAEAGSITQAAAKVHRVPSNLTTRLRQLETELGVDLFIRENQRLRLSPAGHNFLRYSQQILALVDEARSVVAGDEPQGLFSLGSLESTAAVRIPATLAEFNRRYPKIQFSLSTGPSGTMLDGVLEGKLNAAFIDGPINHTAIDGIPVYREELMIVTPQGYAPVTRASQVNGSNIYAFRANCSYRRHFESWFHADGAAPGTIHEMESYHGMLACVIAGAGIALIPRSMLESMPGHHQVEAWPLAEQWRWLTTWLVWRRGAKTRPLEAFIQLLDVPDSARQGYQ
In words: fluorescence polarization; 2 mM Gln; PBS (pH 6.5), 0.5 mM EDTA, 7 mM MgCl2, 100 mM KCl, 5 mM phosphate, herring sperm DNA, 50 C; 10 nM labeled dsDNA. Conditions: protein: recombinant; tags: N-terminal His6 (Methods; called YneJ-His6 in text); chain copies: 4; label: 6-FAM on S41 (printed at the 5' end; Methods say 3' end); blunt.

B1: sad-yneJ consensus motif 21 bp (dsDNA)
DNA 1: GGGTTCTCGATTCGTGAAGGG
DNA 2: CCCTTCACGAATCGAGAACCC
Take B1: the binding result was “binds”.
